This passage reports Kd results from article doi:10.1101/2022.01.09.475567.

The data set addresses NP:WT-C-His (nucleoprotein) (Influenza A virus A/Puerto Rico/8/1934 …, UniProt P03466 1-498). Description: BLI. For orientation: BLI is a label-free optical method that tracks binding on a fibre tip over time.

The term Kd denotes a measure of binding affinity in units of concentration.

Sequence of NP:WT-C-His (nucleoprotein) (P03466 whole entry): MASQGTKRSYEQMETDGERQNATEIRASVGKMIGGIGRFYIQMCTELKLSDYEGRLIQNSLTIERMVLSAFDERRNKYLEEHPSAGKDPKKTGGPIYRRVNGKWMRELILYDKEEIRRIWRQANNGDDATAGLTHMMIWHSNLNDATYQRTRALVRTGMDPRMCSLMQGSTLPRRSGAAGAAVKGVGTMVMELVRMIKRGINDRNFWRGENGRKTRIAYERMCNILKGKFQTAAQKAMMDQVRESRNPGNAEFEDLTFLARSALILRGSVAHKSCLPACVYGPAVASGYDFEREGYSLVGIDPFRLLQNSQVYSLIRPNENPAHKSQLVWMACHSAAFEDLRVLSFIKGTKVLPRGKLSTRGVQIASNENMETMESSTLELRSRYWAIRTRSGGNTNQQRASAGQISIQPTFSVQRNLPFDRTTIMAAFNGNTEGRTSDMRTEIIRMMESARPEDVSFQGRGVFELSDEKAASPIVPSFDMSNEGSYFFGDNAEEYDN

B1: 24nt ssRNA (ssRNA)
RNA: UUUGUUACACACACACACGCUGUG
With B1, the affinity, expressed as Kd, was 2.48 ± 0.091 nM.
